Measurements taken from PMC2757638.

Molecular target: recombinant Cse4 (S. cerevisiae) (UniProt P36012)
Experiment: SEC

Q: With “recombinant Cse4 (from UniProt P36012 1-229) (natural protein; other documents disagree on this pair)” as the substance, how does the stoichiometry N read?
A: 2
